Test results as given in PMC8346945, “Evaluation of efficacy- versus affinity-driven agonism with biased GLP-1R ligands P5 and exendin-F1” (Biochemical Pharmacology, 2021).

Molecular target: SNAP-GLP-1R (glucagon-like peptide-1 receptor with an N-terminal SNAP-tag), stably expressed in HEK293 cells (UniProt P43220)
Sequence of UniProt P43220 (P43220 24-463): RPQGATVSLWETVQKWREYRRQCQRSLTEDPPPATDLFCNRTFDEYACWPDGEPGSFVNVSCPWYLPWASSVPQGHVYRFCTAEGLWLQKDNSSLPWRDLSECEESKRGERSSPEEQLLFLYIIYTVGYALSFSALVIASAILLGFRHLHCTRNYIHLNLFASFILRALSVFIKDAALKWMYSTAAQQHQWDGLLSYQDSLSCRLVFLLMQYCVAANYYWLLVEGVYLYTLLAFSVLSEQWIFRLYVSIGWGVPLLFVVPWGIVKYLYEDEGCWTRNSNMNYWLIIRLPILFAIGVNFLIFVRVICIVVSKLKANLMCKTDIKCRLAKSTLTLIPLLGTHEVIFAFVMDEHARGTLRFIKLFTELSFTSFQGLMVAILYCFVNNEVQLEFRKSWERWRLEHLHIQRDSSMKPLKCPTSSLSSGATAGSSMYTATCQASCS

Exendin-4 (from UniProt P26349 48-87) (peptide)
cAMP production in HEK293-SNAP-GLP-1R cells, 30-min stimulation, pEC50: 9.9 pEC50 (M)
